Test results reported in patent US20250262210A1 (TRUSTEES OF COLUMBIA UNIVERSITY IN THE CITY OF NEW YORK, published 2025).

Columns and labels:
Experiment in all cases: IP/MS, LZTR1 R810W-FLAG, U87
RTTN = RTTN (human, UniProt Q86VV8 1-2226, limits assumed)
Outline: (§1)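 Read-out: spectral counts from LC-MS/MS (Orbitrap Fusion) after MaxQuant identification. Variable modifications were Met oxidation, protein N-terminal acetylation and N/Q deamidation.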

IFT172 = IFT172 (human, UniProt Q9UG01 1-1749, limits assumed)
Chain of IFT172 (Q9UG01 whole entry): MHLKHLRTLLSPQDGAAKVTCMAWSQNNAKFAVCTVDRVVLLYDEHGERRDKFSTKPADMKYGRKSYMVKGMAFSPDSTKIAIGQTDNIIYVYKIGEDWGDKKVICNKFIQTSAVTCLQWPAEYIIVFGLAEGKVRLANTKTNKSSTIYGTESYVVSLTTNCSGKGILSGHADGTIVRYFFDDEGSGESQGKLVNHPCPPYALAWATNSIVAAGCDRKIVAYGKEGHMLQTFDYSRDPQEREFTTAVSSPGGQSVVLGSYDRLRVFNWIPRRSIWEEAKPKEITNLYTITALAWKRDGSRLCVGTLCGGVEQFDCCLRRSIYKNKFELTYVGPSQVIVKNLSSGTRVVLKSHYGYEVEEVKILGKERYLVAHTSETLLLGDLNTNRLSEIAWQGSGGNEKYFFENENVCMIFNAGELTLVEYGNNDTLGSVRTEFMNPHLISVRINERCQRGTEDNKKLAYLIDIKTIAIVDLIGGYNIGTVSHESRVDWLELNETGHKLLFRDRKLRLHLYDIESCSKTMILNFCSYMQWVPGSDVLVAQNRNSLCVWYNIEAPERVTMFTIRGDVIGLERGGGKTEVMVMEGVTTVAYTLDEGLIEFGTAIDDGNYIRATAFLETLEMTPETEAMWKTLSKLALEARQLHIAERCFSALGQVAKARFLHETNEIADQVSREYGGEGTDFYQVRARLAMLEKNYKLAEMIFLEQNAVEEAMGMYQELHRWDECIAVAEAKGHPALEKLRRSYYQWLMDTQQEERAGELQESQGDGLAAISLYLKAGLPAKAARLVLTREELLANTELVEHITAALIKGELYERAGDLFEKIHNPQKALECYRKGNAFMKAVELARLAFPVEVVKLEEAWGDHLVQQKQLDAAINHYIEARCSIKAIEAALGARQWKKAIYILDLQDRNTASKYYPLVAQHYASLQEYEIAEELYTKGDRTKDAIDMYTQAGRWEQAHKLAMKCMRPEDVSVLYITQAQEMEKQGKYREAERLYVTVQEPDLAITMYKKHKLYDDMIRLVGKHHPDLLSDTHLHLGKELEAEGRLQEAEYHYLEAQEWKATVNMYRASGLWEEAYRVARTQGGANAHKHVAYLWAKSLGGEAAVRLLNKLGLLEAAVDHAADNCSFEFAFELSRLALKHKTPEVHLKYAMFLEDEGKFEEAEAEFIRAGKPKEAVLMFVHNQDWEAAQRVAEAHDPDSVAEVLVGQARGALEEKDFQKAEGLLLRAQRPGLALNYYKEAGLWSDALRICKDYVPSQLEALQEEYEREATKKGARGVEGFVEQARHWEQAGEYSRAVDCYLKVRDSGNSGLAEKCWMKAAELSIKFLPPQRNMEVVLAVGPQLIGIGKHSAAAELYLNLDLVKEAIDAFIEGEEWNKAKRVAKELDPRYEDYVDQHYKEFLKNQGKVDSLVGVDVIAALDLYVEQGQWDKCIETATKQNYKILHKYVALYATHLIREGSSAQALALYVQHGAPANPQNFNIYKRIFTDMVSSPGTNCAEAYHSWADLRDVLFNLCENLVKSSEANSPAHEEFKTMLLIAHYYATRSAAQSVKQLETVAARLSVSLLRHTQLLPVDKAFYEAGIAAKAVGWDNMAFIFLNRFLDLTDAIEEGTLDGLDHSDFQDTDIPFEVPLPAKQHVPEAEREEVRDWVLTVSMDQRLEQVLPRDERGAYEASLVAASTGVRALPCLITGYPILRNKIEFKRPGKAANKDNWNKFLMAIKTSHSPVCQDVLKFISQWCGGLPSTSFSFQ
Outline: as §1

CDC42BPA = CDC42BPA (human, UniProt Q5VT25 1-1732, limits assumed)
Outline: as §1

USP47 = molecular target: T1, USP47 (human, UniProt Q96K76 1-1375, limits assumed)
T1 sequence (looked up): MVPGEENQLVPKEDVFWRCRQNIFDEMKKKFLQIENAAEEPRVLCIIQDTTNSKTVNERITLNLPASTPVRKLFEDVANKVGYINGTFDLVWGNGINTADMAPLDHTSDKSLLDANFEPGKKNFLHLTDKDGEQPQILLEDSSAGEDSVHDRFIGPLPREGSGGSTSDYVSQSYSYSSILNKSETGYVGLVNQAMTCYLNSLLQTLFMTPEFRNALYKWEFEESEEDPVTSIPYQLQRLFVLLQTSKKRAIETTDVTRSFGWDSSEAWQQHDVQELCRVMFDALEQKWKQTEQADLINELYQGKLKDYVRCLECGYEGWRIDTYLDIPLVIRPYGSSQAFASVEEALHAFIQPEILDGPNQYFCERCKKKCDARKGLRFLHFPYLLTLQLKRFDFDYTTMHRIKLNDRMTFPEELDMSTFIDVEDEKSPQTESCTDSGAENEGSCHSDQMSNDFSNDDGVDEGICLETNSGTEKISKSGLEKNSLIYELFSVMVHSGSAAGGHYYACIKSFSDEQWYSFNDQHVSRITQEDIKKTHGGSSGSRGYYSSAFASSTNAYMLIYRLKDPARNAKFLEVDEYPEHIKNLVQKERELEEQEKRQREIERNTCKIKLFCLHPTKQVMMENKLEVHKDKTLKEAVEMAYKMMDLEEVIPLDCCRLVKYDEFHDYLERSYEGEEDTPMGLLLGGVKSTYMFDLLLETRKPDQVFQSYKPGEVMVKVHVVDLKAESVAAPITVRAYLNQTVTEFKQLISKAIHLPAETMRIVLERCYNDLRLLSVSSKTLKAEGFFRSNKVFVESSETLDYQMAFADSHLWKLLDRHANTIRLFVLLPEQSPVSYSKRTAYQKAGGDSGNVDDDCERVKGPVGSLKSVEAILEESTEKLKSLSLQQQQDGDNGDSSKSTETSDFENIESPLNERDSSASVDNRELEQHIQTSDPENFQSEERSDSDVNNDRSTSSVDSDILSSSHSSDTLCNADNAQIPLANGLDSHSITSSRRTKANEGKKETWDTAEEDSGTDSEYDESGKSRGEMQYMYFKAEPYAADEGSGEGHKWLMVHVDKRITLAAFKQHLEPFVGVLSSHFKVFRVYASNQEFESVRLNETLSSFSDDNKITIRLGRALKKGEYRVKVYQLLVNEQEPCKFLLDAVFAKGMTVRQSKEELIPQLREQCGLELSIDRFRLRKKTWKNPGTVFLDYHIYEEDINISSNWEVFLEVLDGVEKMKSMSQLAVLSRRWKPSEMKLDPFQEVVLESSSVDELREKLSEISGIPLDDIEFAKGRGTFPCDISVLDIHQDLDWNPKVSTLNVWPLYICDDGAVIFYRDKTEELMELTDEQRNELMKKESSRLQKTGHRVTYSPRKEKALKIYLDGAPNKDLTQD
Outline: as §1

Measured: binding result

Chain of RTTN (Q86VV8 whole entry, the tested form may be a part): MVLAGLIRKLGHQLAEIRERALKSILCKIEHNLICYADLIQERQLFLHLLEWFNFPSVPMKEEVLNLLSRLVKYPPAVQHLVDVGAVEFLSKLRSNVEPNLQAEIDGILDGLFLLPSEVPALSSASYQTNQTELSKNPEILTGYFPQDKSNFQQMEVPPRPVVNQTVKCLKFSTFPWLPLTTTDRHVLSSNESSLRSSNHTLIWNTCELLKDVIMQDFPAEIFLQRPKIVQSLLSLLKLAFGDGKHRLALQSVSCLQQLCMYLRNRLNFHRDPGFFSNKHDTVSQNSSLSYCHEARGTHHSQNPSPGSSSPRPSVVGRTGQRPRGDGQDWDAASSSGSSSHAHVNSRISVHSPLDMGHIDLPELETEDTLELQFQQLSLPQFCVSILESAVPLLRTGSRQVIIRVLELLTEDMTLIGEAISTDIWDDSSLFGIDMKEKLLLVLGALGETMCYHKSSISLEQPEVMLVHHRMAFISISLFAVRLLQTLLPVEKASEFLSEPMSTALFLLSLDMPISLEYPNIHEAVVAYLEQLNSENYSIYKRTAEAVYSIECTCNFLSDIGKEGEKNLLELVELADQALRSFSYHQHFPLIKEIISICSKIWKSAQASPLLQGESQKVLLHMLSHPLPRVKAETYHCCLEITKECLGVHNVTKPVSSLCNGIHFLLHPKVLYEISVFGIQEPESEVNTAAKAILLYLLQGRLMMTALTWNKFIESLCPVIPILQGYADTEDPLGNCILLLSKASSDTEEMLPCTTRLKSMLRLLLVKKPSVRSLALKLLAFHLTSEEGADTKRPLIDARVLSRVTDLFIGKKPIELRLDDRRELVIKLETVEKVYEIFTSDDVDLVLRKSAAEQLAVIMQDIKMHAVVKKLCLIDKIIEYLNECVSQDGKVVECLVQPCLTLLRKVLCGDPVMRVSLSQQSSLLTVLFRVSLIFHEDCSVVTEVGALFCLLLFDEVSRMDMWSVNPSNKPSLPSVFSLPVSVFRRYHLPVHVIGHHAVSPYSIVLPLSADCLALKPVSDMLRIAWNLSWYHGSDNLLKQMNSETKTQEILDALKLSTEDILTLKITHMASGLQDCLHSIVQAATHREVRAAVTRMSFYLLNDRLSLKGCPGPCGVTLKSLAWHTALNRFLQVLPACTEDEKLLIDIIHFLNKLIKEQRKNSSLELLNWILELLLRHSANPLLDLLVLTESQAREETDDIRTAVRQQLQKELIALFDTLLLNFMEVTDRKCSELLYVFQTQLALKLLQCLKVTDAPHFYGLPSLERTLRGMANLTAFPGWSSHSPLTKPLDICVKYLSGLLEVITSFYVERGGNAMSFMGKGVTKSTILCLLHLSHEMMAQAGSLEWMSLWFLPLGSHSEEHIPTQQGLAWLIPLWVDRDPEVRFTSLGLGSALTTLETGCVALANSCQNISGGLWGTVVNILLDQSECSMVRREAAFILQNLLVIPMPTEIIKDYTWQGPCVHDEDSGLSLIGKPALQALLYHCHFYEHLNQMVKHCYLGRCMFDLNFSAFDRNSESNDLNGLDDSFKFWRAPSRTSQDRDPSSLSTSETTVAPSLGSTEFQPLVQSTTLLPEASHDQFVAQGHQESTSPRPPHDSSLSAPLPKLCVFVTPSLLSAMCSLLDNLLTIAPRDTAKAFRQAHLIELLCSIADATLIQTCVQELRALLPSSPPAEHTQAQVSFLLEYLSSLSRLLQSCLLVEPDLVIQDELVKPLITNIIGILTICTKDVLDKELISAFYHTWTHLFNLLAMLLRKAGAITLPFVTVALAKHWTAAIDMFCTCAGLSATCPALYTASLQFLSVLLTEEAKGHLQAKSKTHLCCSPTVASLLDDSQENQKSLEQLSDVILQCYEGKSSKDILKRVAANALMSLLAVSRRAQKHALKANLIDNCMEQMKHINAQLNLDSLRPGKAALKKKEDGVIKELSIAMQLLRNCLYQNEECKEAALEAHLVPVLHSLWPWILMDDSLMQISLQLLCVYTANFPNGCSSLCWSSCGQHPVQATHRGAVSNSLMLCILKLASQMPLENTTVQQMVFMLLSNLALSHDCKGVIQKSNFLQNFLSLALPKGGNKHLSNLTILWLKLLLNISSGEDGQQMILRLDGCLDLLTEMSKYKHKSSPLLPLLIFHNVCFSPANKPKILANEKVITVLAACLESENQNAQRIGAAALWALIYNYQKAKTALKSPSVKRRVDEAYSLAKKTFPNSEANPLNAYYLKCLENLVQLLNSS

B1: LZTR1 R810W-FLAG (other, human, UniProt Q8N653 1-840, looked up)
chain: MAGPGSTGGQIGAAALAGGARSKVAPSVDFDHSCSDSVEYLTLNFGPFETVHRWRRLPPCDEFVGARRSKHTVVAYKDAIYVFGGDNGKTMLNDLLRFDVKDCSWCRAFTTGTPPAPRYHHSAVVYGSSMFVFGGYTGDIYSNSNLKNKNDLFEYKFATGQWTEWKIEGRLPVARSAHGATVYSDKLWIFAGYDGNARLNDMWTIGLQDRELTCWEEVAQSGEIPPSCCNFPVAVCRDKMFVFSGQSGAKITNNLFQFEFKDKTWTRIPTEHLLRGSPPPPQRRYGHTMVAFDRHLYVFGGAADNTLPNELHCYDVDFQTWEVVQPSSDSEVGGAEVPERACASEEVPTLTYEERVGFKKSRDVFGLDFGTTSAKQPTQPASELPSGRLFHAAAVISDAMYIFGGTVDNNIRSGEMYRFQFSCYPKCTLHEDYGRLWESRQFCDVEFVLGEKEECVQGHVAIVTARSRWLRRKITQARERLAQKLEQEAAPVPREAPGVAAGGARPPLLHVAIREAEARPFEVLMQFLYTDKIKYPRKGHVEDVLLIMDVYKLALSFQLCRLEQLCRQYIEASVDLQNVLVVCESAARLQLSQLKEHCLNFVVKESHFNQVIMMKEFERLSSPLIVEIVRRKQQPPPRTPLDQPVDIGTSLIQDMKAYLEGAGAEFCDITLLLDGHPRPAHKAILAARSSYFEAMFRSFMPEDGQVNISIGEMVPSRQAFESMLRYIYYGEVNMPPEDSLYLFAAPYYYGFYNNRLQAYCKQNLEMNVTVQNVLQILEAADKTQALDMKRHCLHIIVHQFTKVSKLPTLWSLSQQLLLDIIDSLASHISDKQCAELGADI
notes: Stably expressed in U87 cells by lentivirus; also called LZTR1-FLAG-R810W; LZTR1 RW; not shown: FLAG tag
binds: RTTN | IFT172 | CDC42BPA | USP47
